Laboratory results reported in the supplement of paper PMC9170038.

System: MS2 coat protein
Test: apparent KD of MS2 coat protein; designed switch direction (-1 OFF switch, 1 ON switch): -1; higher = weaker reporter binding
How it was run: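 Transcription of designed RNA switches on Illumina chips was done by stalled E. coli RNA polymerase. SNAP-549-labelled MS2 coat protein was then titrated in doubling steps from 0.7 or 1.5 nM to 3 µM, with steps of 0.8–1.5 h at the lowest and 10–20 min at the highest concentration. The per-design median over clusters of curve-fitted normalised fluorescence is reported as apparent KD.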

[1] = input ligand: microRNA oligo, concentration not stated
[2] = Eterna round: R95, input ligand: microRNA oligo, concentration not stated
[3] = Eterna round: R95, input ligand: FMN 200 uM
[4] = Eterna round: R95, input ligand: none

Sequence	apparent KD of MS2 coat protein [1] [nM]	apparent KD of MS2 coat protein (input ligand: FMN 200 uM) [nM]	apparent KD of MS2 coat protein (input ligand: none) [nM]	apparent KD of MS2 coat protein [2] [nM]	apparent KD of MS2 coat protein [3] [nM]	apparent KD of MS2 coat protein [4] [nM]
AGCUGUGGCCGAGGAUAUCUAUCUCAUAAAACCGAAAUAUAAUCGGACAUGAGGAUCACCCAUGUAGAGAAGGCGGUCUCAGCA [Eli eng2 - 095] (Eterna round: R96, puzzle: Exclusion NG 2)	20.1					
UAUGACUGAGGAUAUUGUACUGCUGACAUGAGGAUCACCCAUGUAUGCUAACUCGGCCGUCGAGAAGGCAGUUAUG [BotMod 26 - Jieux - Exclusion 5] (Eterna round: R97, puzzle: Exclusion 5)		16.5	52			
AUUUAACAUGAGGAUCACCCAUGUGAGGAUAUGUCCAUUUUAAACAAAUAGGAUAUGGACAGAAGGCACACCGG [JR_Exclusion1_Sub007] (puzzle: Exclusion 1)				219		
AGUACUAUGCGAGCUGACUUGCGUAGUGCAGCAGGUGAAACAUGAGGAUCACCCAUGUCCUCAUUUGCUCGUCUUAA [Mat - Sensor v3 - Turn-off var 2 - D3] (puzzle: Sensor v3, turn-off variant 2)				563	39.7	38
AGAAAUGCCCAUGGCCGCAAGCUUUUCGCUUGUCUUACCACAUGAGGAUCACCCAUGUGACAUGGGCUCCUUAUAAU [Usdigeor] (puzzle: Sensor v3, turn-off variant 2)					12.3	12
CCUAUGUUAGGAUAUCUAGUAAGAGGCCCAUAGGGCCGUGCAGAGAAGGGACAUGAGGAUCACCCAUGUGUCAC [Eternabot (L1) Solution 86] (Eterna round: R97, puzzle: Exclusion 4)		26.7	34.6			
UAUAUAUAGUAAGGAUAUGUAUAUAUUUUAUGAACAGAAGGUACUGACAUGAGGAUCACCCAUGUUUUAGUGUGGGCAUGUAGA [JMF's solution 70] (Eterna round: R96, puzzle: Exclusion NG 1)	38.8	49.4	64.8			
GGGUGACAUGAGGAUCACCCAUGUCAGGAUAUGAUACUAUGUACUUCGGUACAUAGUAUCAGAAGGGACAUCAU [Ex1-3: 14] (puzzle: Exclusion 1)				216		
ACAUGAGGAUCACCCAUGUCCGGCUGGUCCGUCUCGGCUGUCGAGGAUAUAGCUCGGUAUCCGCGCUAGAAGGCGGGAGCCGGA [Aenatbe mod 84] (Eterna round: R96, puzzle: Exclusion NG 3)	29.1	45.3	44.4			
AGAAGUAUAGGAUAUACGUCUGCGCACAUGAGGAUCACCCAUGUCGUGUUCCGUGGCAGAGUAGAAGGGUACGGAC [EX5 B.11] (Eterna round: R97, puzzle: Exclusion 5)		305	219			
GCUCCUCCUGUUAGGAUAUGCUUCGGGCUUCCGCAGCAGAAGGAACAUGAGGAUCACCCAUGUCAAAUAAAAUC [Brourd's mod of Ex.4 - Mod Inxebexe (Scored 85 R3.2)] (Eterna round: R97, puzzle: Brourd's mod of Exclusion 4)		223	76.2			
UAUGUUGUUGUGAGGAUAUACUUAGUUUGACCGUAGUAGAAGGCACAUGAGGAUCACCCAUGUAGAUGCUUGGU [JR_BME4_Sub006] (puzzle: Brourd's mod of Exclusion 4)				5.53		
AUCGUGCAGCUUUGCUGUACGAGUACAUGAGGAUCACCCAUGUAGGAUAUGGUACGCAAAGCGUGCUAGAAGGAUAUGAGAAAU [Mat - Exclusion NG 3 - Mod of JL - D99] (Eterna round: R96, puzzle: Exclusion NG 3)	18.8	30.7	36.3			
UGCUACGGAGGAUAUACAUGAGGAUCACCCAUGUGAUAGAUUAUCGCGAAAGCGUAAUGUAGAAGGCCGUAGCU [jl-ex3-4.11 jl mod] (Eterna round: R97, puzzle: Exclusion 3)		556	54.4			
UCACGGGACUAAGGAUAUACAUGAACCAUUUUUGUAGAAGGUAGAAUGUUUGAUCAUAAACUAAACAUGAGGAUCACCCAUGUU [JR_ExcNG1_Sub090] (Eterna round: R96, puzzle: Exclusion NG 1)	16.9					
ACAUGAGGAUCACCCAUGUCCGGCUGGUCUGUCUCGGCUGUCGAGGAUAUAGCACGGUAUCCGCGCUAGAAGGCGGGAGCCGGG [Aenatbe mod 88] (Eterna round: R96, puzzle: Exclusion NG 3)	127	237	193			
UUGUUGUAUGUAGGAUAUGCAUAUUAUUAUUGUGCAGAAGGACAUGAGGAUCACCCAUGUAUAUUAUUAUUAUAUGUUAUAUAU [Title] (Eterna round: R96, puzzle: Exclusion NG 1)	22.1					

Sequence	apparent KD of MS2 coat protein [1] [nM]	apparent KD of MS2 coat protein (input ligand: FMN 200 uM) [nM]	apparent KD of MS2 coat protein (input ligand: none) [nM]	apparent KD of MS2 coat protein [2] [nM]	apparent KD of MS2 coat protein [3] [nM]	apparent KD of MS2 coat protein [4] [nM]
AUAUUACGAGGAUAUCGUUUUUUUCACAUGAGGAUCACCCAUGUUAUCCAUGUUUCGUUUCGAGAAGGCGUAAGUU [JR_E5_Sub070] (puzzle: Exclusion 5)				46.9		
AGUACUAUCACGAGAGUGAUAGUACAUUAAACUUGUGAGACAUGAGGAUCACCCAUGUCCUCAUGAGCUCGUCUUAA [Mat - Sensor v2 - var 2 - Mod - D185] (Eterna round: R96, puzzle: Sensor v2, turn-off variant 2)	96.1	299	165			
AUCGUGCAGCUUUGCUGUACGAGUACAUGAGGAUCACCCAUGUAGGAUAUGGUACGCUUUGCGUGCUAGAAGGAUAUGUGUAGG [JL EXNG3 1.36] (Eterna round: R96, puzzle: Exclusion NG 3)	30.7	49.1	50.3			
CGGUGCUUCUGGAAACAUGAGGAUCACCCAUGUUGAGUUAGCGAGGAUAUCGGUAACACUUGUUAUGAGAAGGCGCGAACCAGA [Ex NG3 #35] (Eterna round: R96, puzzle: Exclusion NG 3)	14.6	13.6	19.4			
AAACUGUGAGGAUAUGGUGAGUAGUGCCUGAGCGCUGCUCACCAGAAGGCACAUGAGGAUCACCCAUGUAUAAC [Mat - Exclusion 4 - Mod of JL - D5] (puzzle: Exclusion 4)				22.4		
UUGCAGUCGUCAGGAUAUAGUAUUACGGCCUUUCAUUUCUUCAUACAUGAGGAUCACCCAUGUCGCUAGAAGGGCUUAUCGCUU [salish99_ExNG2_r04_108] (Eterna round: R96, puzzle: Exclusion NG 2)	11.1					
AAGAAACAUGAGGAUCACCCAUGUGAGGAUAUGAGAAAGAAAAGAAAAGAAAGAAGAUUCAGAAGGCACAAAGG [salish99-ex1_r3_035] (puzzle: Exclusion 1)				43.9	91.9	50
AUGCUCCGUGUAGGAUAUCGCCGUACCACUCGGCGAGAAGGACAUGAGGAUCACCCAUGUAUGUUAUUAUCACGUGUGGCGCGC [Design 50] (Eterna round: R96, puzzle: Exclusion NG 1)	12.9	46	20.5			
GUAUAUGAUGUAGGAUAUACGAGACAUGAGGAUCACCCAUGUGAGGGAAGGAGAAGGAGAAGAGAGUAGAAGGAUAGAGUGUGA [Default title] (Eterna round: R96, puzzle: Exclusion NG 2)	45.7	69.3	80.6			
CGUAUGUCAGGAUAUCGUGCAUACAACGAAAGUUCUAUGUGCGAGAAGGGACAUGAGGAUCACCCAUGUCUUCG [Omei Ex4 A13] (Eterna round: R97, puzzle: Exclusion 4)		42.8	23.6			
AGUAAGCUAGGAUAUGCUUUGGGAAAGCAUUCCUUCGAUAAACUUGAGGAUCACCCAAGUAGAAGGAGCUUACC [salish99_ex2_r4_002] (Eterna round: R97, puzzle: Exclusion 2)		13.4	12.4			
UGAUUCGGAGGAUAUACAUGAGGAUCACCCAUGUUACCGGAAGGUAGGAGAGGUCGCCGUAGAAGGCUGCACAU [Eternabot (Original) Solution 7] (Eterna round: R97, puzzle: Exclusion 3)		30.4	31.5			
AGCUGUGGCCGAGGAUAUACACAUGAGGAUCACCCAUGUAGGCGCGGAAACGCGCUAAAAGGGUUGUAGAAGGCGGUCUCAGCA [Eli eng2 - 054] (Eterna round: R96, puzzle: Exclusion NG 2)	165	471	114			
AGUACUAACUCGAUAGUGUUAGUACAAUAAGCUUGUGAAACAUGAGGAUCACCCAUGUCCUCAUAAGCUCGUCUUAU [salish99_TOv2_r3_1004] (puzzle: Sensor v3, turn-off variant 2)				726	16.9	15.4
UUCACAUGGACAUAAGAUCACAUGAGGAUCACCCAUGUGAAUAACAAGCUUUUUGCUCGUCUUAUGUCCAAUAAUAU [Stov1/14-A3] (Eterna round: R97, puzzle: Sensor, turn-off variant 1)		13.2	13.2			
AGAAAUCUGUAGGAUAUGUUGAACACCGUGUACACAGAAGGGCAGACAUGAGGAUCACCCAUGUGGUGGGCCAG [Eternabot (L1) Solution 91] (Eterna round: R97, puzzle: Exclusion 6)		576	469			
AGUAGUAGUAUCCGGUCCUACAUGAGGAUCACCCAUGUAGCUAGACGUGCACGCGAUGCUCGUCAGACUACCAGAUG [salish99_TOv1_r3_045] (puzzle: Sensor v3, turn-off variant 1)				45.1	48.6	59.5
